From patent publication US5625031, “Peptide inhibitors of the p33^cdk2 and p34^cdc2 cell cycle regulatory kinases and human papillomavirus E7 oncoprotein” (Bristol-Myers Squibb Company, dated 1997)

B1: p107 9mer peptide 715FK (peptide)
peptide: LCAKYIMAK
B2: p107 9mer peptide 715FA (peptide)
peptide: LCAAYIMAK
B3: p107 N5mer peptide (peptide)
peptide: YIMAK
B4: p107 9mer peptide 717IK (peptide)
peptide: LCAFYKMAK

Target: T1, p34^cdc2 cell cycle regulatory kinase (Homo sapiens (Human), UniProt P06493)
Test: IC50 column of Table 1 (ELISA based competition on p107 30mer-coated plate)

Binder | binding result
B1 | no binding (tested: >100 µM)
B2 | no binding (tested: >100 µM)
B3 | no binding (tested: >100 µM)
B4 | no binding (tested: >100 µM)

Target: T1, p34^cdc2 cell cycle regulatory kinase
Test: IC50 column of Table 1 (ELISA based competition, competitor plate-bound p107 30mer)

Binder | IC50
B1 | > 100 µM
B2 | > 100 µM
B3 | > 100 µM
B4 | > 100 µM
